In US20220396632A1 (VERSEAU THERAPEUTICS, published 2022):
Non-standard residues stand in square brackets, D forms with d. No end group written: not given here. *: point of attachment. Biotin = O=C1N[C@H]2[C@H](CS[C@H]2CCCCC(=O)*)N1; sY = N[C@@H](Cc1ccc(OS(=O)(=O)O)cc1)C(=O)O

Assays:
[1] = molecular target: T1, Recombinant human PSGL-1(ECD)-hFc1 (R&D Systems, Cat. 3345-PS) (human, UniProt Q14242 42-305); experiment: blocking ELISA vs VISTA-Fc, pH 6.0
T1 construct: Bought; Gln42-Val295 counted on AAC50061; also called PSGL-1-Fc; PSGL-1-hFc1 chimera; not shown: human IgG1 Fc, Pro100-Lys330
T1 sequence: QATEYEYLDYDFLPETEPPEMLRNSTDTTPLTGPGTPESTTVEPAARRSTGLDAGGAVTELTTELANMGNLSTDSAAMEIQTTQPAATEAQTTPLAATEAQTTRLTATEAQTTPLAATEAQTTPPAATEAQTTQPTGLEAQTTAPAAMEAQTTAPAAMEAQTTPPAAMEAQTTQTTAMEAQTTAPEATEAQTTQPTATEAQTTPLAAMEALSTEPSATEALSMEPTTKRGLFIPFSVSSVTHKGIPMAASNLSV

SulfoTyr C4 peptide = molecular target: T2, SulfoTyr C4 peptide (not fully specified; Y4, Y7 and Y9 sulfated (SO3); C-terminal biotin); experiment: ELISA, 50 nM mAb
T2 construct: also called C4 alpha chain peptide; human sulfotyrosinylated C4 peptide
T2 peptide: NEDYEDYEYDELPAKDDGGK
Method: (§1) Recombinant PSGL-1-hFc1 chimera protein consisting of PSGL-1's extracellular domain (ECD) served as a positive control. […] Primary antibody was added (25 ul per well) in duplicate at 50 nM in assay buffer (blocking buffer containing 0.05% Tween®20) into test and control (just blocked) wells and the plate incubated for 45 min at 37° C.

[2] = molecular target: T3, Human fibrinogen protein (ThermoFisher, RP-43142) (human, UniProt P02671 20-629; P02675 31-491; P02679 27-453, limits assumed, natural sulfotyrosines); experiment: ELISA, 50 nM mAb
T3 construct: mature; Native dimer with 3 pairs of non-identical chains; also called gamma-fibrinogen; γ fibrinogen protein
T3 sequence (looked up) 1: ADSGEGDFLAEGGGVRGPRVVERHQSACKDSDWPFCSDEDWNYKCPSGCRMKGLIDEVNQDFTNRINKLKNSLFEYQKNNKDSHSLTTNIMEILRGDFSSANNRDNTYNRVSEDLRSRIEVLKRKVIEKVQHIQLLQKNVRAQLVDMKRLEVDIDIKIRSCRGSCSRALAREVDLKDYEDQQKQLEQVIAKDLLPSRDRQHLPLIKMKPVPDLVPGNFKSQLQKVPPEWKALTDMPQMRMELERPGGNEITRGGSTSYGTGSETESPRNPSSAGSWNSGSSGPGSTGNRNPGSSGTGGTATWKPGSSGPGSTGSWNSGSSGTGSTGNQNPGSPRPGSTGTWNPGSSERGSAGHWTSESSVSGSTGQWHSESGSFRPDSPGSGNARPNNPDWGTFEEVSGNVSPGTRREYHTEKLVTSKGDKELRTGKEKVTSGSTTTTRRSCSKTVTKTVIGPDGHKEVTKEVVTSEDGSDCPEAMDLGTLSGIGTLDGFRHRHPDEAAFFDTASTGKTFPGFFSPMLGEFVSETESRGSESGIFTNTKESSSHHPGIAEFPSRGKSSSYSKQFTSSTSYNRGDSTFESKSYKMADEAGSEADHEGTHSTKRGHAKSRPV
T3 sequence (looked up) 2: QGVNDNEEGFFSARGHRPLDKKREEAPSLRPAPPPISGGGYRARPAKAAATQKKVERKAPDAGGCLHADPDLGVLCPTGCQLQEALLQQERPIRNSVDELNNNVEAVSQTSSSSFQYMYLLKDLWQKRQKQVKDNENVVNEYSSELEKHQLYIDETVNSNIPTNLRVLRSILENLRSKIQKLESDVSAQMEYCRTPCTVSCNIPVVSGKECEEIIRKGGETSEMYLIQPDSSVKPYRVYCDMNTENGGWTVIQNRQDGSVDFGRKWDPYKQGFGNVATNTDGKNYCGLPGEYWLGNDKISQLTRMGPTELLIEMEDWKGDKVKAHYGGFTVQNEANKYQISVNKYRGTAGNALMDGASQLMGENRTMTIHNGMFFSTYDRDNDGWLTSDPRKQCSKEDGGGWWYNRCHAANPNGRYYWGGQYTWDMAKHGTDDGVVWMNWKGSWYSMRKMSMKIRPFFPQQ
T3 sequence (looked up) 3: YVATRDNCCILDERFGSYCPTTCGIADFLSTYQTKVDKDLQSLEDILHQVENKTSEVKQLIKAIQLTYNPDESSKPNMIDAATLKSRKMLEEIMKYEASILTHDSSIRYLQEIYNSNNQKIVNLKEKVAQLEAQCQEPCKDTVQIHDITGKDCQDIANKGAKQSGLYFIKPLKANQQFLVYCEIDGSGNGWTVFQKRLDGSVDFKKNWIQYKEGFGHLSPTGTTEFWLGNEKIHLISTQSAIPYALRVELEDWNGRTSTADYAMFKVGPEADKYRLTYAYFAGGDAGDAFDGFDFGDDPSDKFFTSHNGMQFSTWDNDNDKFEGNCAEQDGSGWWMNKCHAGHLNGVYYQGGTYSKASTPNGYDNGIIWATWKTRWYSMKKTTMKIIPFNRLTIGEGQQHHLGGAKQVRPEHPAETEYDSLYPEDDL
Method: as §1

[3] = molecular target: T4, Human complement C4 protein (Millipore Sigma, Cat. 204886) (human, UniProt P0C0L4 20-675; P0C0L4 680-1446; P0C0L4 1454-1744, limits assumed, natural sulfotyrosines); experiment: ELISA, 50 nM mAb
T4 construct: mature
Method: as §1

[4] = molecular target: T5, Sulfotyrosine D6 biotin peptide (human); experiment: ELISA, 50 nM mAb
T5 construct: also called D6 peptide
T5 peptide: ENSSFY[sY][sY]D[sY]LDEVAFGGK(Biotin)
Method: as §1

[5] = molecular target: T1, Recombinant human PSGL-1(ECD)-hFc1 (R&D …); experiment: blocking ELISA vs P-selectin-Fc
Procedure, shortened: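 IC50 values come from sigmoidal curve fits of antibody titrations run in duplicate. The capture protein was PSGL-1-Fc (2.5 ug/mL, PBS pH 7.4, 4° C overnight); antibody incubation and HRP-streptavidin detection each lasted 45 min at 37° C.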

SulfoCCK biotin peptide = molecular target: T6, SulfoCCK biotin peptide (human); experiment: ELISA, 50 nM mAb
T6 construct: also called sulfotyrosine CCK peptide
T6 peptide: SHRISDRD[sY]MGWMDFGGK(Biotin)
Method: as §1

T4 sequence (P0C0L4 20-675 limits assumed, form in doubt, chain 1 of 3): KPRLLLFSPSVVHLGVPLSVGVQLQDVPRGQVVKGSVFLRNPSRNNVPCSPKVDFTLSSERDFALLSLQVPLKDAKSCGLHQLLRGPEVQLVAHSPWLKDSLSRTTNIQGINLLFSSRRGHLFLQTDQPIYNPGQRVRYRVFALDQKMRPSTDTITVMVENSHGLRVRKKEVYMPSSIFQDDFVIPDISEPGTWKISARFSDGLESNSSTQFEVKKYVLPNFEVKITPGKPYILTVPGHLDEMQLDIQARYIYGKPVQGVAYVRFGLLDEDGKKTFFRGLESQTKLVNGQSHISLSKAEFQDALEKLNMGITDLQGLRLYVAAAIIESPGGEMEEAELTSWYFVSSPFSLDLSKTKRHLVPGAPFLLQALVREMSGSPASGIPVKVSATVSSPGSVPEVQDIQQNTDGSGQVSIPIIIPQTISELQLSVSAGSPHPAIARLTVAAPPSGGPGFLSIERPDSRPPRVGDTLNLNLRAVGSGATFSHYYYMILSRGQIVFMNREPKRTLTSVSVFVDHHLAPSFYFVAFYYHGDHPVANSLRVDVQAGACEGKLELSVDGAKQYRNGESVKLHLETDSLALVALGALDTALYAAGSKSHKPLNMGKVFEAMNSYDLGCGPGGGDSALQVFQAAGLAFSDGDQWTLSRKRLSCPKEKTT
T4 sequence (P0C0L4 680-1446 limits assumed, form in doubt, chain 2 of 3): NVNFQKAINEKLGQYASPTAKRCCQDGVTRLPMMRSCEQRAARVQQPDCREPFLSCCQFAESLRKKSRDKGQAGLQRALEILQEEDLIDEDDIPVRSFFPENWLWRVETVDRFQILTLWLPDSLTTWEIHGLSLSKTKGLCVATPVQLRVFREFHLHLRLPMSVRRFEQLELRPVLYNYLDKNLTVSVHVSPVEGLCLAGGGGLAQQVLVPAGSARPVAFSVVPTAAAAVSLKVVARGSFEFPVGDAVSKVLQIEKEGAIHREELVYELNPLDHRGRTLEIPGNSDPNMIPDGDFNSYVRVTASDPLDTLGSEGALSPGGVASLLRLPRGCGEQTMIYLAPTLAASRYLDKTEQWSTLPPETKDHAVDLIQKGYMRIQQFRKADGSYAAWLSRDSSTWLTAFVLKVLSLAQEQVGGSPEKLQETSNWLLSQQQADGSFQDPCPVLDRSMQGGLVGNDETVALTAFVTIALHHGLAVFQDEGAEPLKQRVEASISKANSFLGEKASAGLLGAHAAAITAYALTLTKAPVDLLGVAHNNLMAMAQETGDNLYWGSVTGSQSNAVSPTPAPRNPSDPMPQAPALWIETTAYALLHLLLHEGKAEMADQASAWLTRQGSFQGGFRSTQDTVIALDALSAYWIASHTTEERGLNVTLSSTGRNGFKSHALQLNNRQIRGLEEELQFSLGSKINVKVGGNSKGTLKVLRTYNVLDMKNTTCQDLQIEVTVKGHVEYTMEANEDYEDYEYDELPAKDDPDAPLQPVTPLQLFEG
T4 sequence (P0C0L4 1454-1744 limits assumed, form in doubt, chain 3 of 3): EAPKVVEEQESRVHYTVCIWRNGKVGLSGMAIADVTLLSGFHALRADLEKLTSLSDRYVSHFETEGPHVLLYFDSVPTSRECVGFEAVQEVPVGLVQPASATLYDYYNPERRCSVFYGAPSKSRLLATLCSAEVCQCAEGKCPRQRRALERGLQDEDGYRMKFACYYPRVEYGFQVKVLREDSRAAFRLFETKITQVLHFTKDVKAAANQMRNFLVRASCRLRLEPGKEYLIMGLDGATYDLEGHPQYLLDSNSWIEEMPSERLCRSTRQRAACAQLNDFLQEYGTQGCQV

B1: 18F02 (antibody, V domains shown)
VH: QVQLQQPGAELVKPGASVKLSCKASGYTFTSYWMHWVKQRPGQGLEWIGMIHPNSGRTNYNEKFKSKATLTVDKSSSTAYMQLSSLTSEDSAVYYCARSDYWGQGTTLTVSS
VL: DIVMTQAAFSNPVTLGTSASISCRSSKSLLHSDGITYLYWFLQRPGQSPQLLIYRMSNLASGVPDRFSGSGSGTDFTLRISRVEAEDVGVYYCAQMLEFPRTFGGGTKLEIK
notes: From mouse immunisation; only variable domains given
[1]
  % max Block: 100%
  IC50: 10 nM
SulfoTyr C4 peptide
  binding result: no binding (tested: 50 nM)
[2]
  binding normalized to PSGL-1: 0.01
  binding result: no binding (tested: 50 nM)
[3]
  binding normalized to PSGL-1: 0.03
[4]
  binding normalized to PSGL-1: 0.09
[5]
  % max Block: 100%
  IC50: 6 nM

B2: 2E12 (antibody, V domains shown)
VH: QVQLQQSGAELARPGASVKLSCKASGYTFTNYGLNWVKQRTGQGLEWIGEIYPRSGNTYYNEKFKGKATLTADKSSSTAYMQLSSLTSEDSAVYFCATEGAYWGQGTLVTVSA
VL: DIVMTQTPLTLSVTIGQPASISCKSSQSLLHGNGKTYLNWLLQRPGQSPKLLIYLVSKLESGIPDRFSGSGSGTDFTLEISRVEAEDLGIYYCLQSTHFPRTFGGGTKLEIK
notes: Mouse hybridoma mAb; only variable domains given
[1]
  % max Block: 0%
SulfoTyr C4 peptide
  binding normalized to PSGL-1: 0.03
[2]
  binding normalized to PSGL-1: 1.3
[3]
  binding normalized to PSGL-1: 0.1
[4]
  binding normalized to PSGL-1: 0.06
[5]
  % max Block: 0%

B3: 19I01 (antibody, V domains shown)
VH: EVQLVESGGGLVKPGGSRKLSCAASGFTFSDYGMHWVRQAPEKGLEWVAYISSGSSTIYYADTVKGRFTISRDNAKNTLFLQMTSLRSEDTAMYYCARGVDGYWGQGTTLTVSS
VL: DVVMTQTPLSLPVSLGDQASISCRSSQSLVHSNGNTYLHWYLQKPGQSPKFLIYKVSNRFSGVPDRFSGSGSGTDFTLKISRVEAEDLGVYFCSQTTHVPLTFGAGTKLELK
notes: From mouse immunisation; only variable domains given; also called 19101
[1]
  % max Block: 100%
  IC50: 8 nM
SulfoTyr C4 peptide
  binding normalized to PSGL-1: -0.01
  binding result: no binding (tested: 50 nM)
[2]
  binding normalized to PSGL-1: -0.01
  binding result: no binding (tested: 50 nM)
[3]
  binding normalized to PSGL-1: -0.01
[4]
  binding normalized to PSGL-1: 0.02
  binding result: no binding (tested: 50 nM)
[5]
  % max Block: 100%
  IC50: 4 nM

B4: 16L15 (antibody, V domains shown)
VH: DVKLVESGGGLVKLGGSLKLSCAASGFTFSSYYMSWVRQTPEKRLEWVATISNGGGSTYYPDSVKDRFTISRDNAKNTLYLQMSSLNSEDTAVYYCAKPLYYSNPWFAYWGQGTLVTVSA
VL: DVLLTQTPLSLPVSLGDQASISCRSSQSIVHSNGNTYLEWYLQKPGQSPKLLIYKVSNRFSGVPDRFSGSGSGTDFTLKISRVEAEDLGVYYCFQGSHVPRTFGGGTKLEIK
notes: as for B1
[1]
  % max Block: 100%
  IC50: 6 nM
SulfoTyr C4 peptide
  binding normalized to PSGL-1: 0.01
  binding result: no binding (tested: 50 nM)
[2]
  binding result: no binding (tested: 50 nM)
[3]
  binding normalized to PSGL-1: 0.02
[4]
  binding normalized to PSGL-1: 0.06
[5]
  % max Block: 100%
  IC50: 10 nM

B5: 10F01 (antibody, IgG4, V domains shown)
VH: EVQLVQSGGGLVQPGGSLRLSCAASGFTFSSYAMSWVRQAPGKGLEWVSALRGGDGGTYHADSVKGRFTISGDSSKNTLYLQMNSLRAEDTAVYYCARRMVGAAYAFDIWGQGTMVTVSS
VL: LPVLTQPHSVSESPGKTVTISCTRSSGSIADNFVQWYRQRPGSAPTTVIYEGDQRPSGVPGRFSGSIDSSSNSASLTISGLQTDDEADYYCQSFDSYNRRTHVVFGGGTKLTVL
[1]
  % max Block: 100%
  IC50: 8 nM
SulfoTyr C4 peptide
  binding normalized to PSGL-1: 0.17
[2]
  binding normalized to PSGL-1: 0.01
  binding result: no binding (tested: 50 nM)
[3]
  binding normalized to PSGL-1: 0.06
[4]
  binding normalized to PSGL-1: 0.04
SulfoCCK biotin peptide
  binding normalized to PSGL-1: 0.03
[5]
  % max Block: 100%
  IC50: 4 nM

B6: 20I15 (antibody, V domains shown)
VH: EVKLVESGGGLVQPGGSLSLSCAASGFTFTDYYMSWVRQPPGKALEWLGFIRNKANGYTTEYSASVKGRFTISRDNSQSILYLQMNALRAEDSATYYCARTYLRRGYFDVWGTGTTVTVSS
VL: DIVLTQSPASLAVSLGQRATISCRASKSVSTSGYSYMHWFQQKPGQPPKLLIYLASNLESGVPARFSGSGSGTDFTLNIHPVEEEDAATYYCQHSRELPLTFGAGTKLELK
notes: From mouse immunisation; only variable domains given; also called 20115
[1]
  % max Block: 85%
  IC50: 30 nM
SulfoTyr C4 peptide
  binding normalized to PSGL-1: 0.34
[2]
  binding normalized to PSGL-1: 0.06
[3]
  binding normalized to PSGL-1: 0.09
[4]
  binding normalized to PSGL-1: 0.35
[5]
  % max Block: 52%
  IC50: 100 nM

B7: 03D07 (antibody, IgG4, V domains shown)
VH: EVKLLESGGGLVQPGGSLRLSCAASGFTFSSYALSWVRQAPGKGLEWVSAISGSGGNTYYADSVKGRFTISRDNSKNTLYLQMNSLRAEDTAVYYCAKVVGATNYWGQGTLVTVSS
VL: DIVMTQTPLSLPVTLGQPASISCRSSQSLVYSDGHTYLSWFHQRPGQSPRRLIYKVSIRDSGVPDRFSGSGSGTDFTLKISRVEAEDVGVYYCMQRLQIPLTFGGGTKVEIK
[1]
  % max Block: 100%
  IC50: 8 nM
SulfoTyr C4 peptide
  binding normalized to PSGL-1: 0.71
[2]
  binding normalized to PSGL-1: 0.06
[3]
  binding normalized to PSGL-1: 0.53
[4]
  binding normalized to PSGL-1: 0.28
SulfoCCK biotin peptide
  binding normalized to PSGL-1: 0.08
[5]
  % max Block: 100%
  IC50: 5 nM
